Results taken from patent publication US20260258155A1 (TRIVENI BIO, published 2026).
Where a chain is given by its changes, count along the chain named.

B1: KLK7-L4-Ab1 (antibody, V domains shown)
VH: QLQLQESGPGLVKPSETLSLTCTVSGGSISSSSYYWGWIRQPPGKGLEWIGSISYSGSTYYNPSLKSRVTISVDTSKNQFSLKLSSVTAADTAVYYCARGAPTYFGAASHYYYYMDVWGKGTTVTVSS
VL: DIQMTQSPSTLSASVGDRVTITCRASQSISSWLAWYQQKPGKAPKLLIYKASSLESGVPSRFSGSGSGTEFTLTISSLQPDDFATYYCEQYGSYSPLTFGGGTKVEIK
B2: KLK5-L1-Ab1 (antibody, V domains shown)
VH: EVQLVESGGGLVQPGGSLRLSCAASGFTFSSYSMNWVRQAPGKGLEWVSYISSSSSTIYYADSVKGRFTISRDNAKNSLYLQMNSLRAEDTAVYYCARDLTSMQSRDYYYYGMDVWGQGTTVTVSS
VL: DIQMTQSPSSVSASVGDRVTITCRASQGISSWLAWYQQKPGKAPKLLIYAASSLQSGVPSRFSGSGSGTDFTLTISSLQPEDFATYYCQQVPIFPYTFGGGTKVEIK
B3: KLK5-L3-Ab2 (antibody, V domains shown)
VH: QVQLVQSGAEVKKPGSSVKVSCKASGGTFSGYSISWVRQAPGQGLEWMGLIFPISGTANYAQKFQGRVTITADESTSTAYMELSSLRSEDTAVYYCARGSASGYYDRSYYYYGMDVWGQGTTVTVSS
VL: B2 VL with P92S, I93S
B4: KLK7-L3-Ab1 (antibody, V domains shown)
VH: QVQLVQSGAEVKKPGSSVKVSCKASGGTFSNYAISWVRQAPGQGLEWMGGIIPIFGTANYAQKFQGRVTITADESTSTAYMELSSLRSEDTAVYYCARGAPNYYGSSSSRGIAFDIWGQGTMVTVSS
VL: B2 VL with Q89V, V91A, P92N, I93A
B5: KLK5-L3-Ab4 (antibody, V domains shown)
VH: B3 VH with S30N, G31N, S33H, L50G, F52I, I54P, S55F, N59H, S100E, M114L
VL: B2 VL with P92S, I93S
B6: KLK5-L3-Ab3 (antibody, V domains shown)
VH: B3 VH with S30N, G31N, S33H, L50G, F52I, I54P, S55F, N59H
VL: B2 VL with P92S, I93S
B7: KLK5-L3-Ab1 (antibody, V domains shown)
VH: B3 VH with S16A, G27Y, S30T, S33Y, I34M, S35H, L50G, F52I
VL: B2 VL with P92S, I93S
B8: KLK5-L3-Ab5 (antibody, V domains shown)
VH: B3 VH with G99Q, Y111R
VL: B2 VL with P92S, I93S
B9: KLK7-L1-Ab8 (antibody, V domains shown)
VH: QVQLVQSGAEVKKPGASVKVSCKASGYTFTSEGIHWVRQAPGQGLEWMGSISASSGDTNYAQKLQGRVTMTTDTSTSTAYMELRSLRSDDTAVYYCARSAGYGARHWYFDLWGQGTMVTVSS
VL: DIQMTQSPSSLSASVGDRVTITCRASQSISSYLNWYQQKPGKAPKLLIYGASSLQSGVPSRFSGSGSGTDFTLTISSLQPEDFATYYCDQWYSTPPITFGGGTKVEIK
B10: KLK5-L2-Ab1 (antibody, V domains shown)
VH: QLQLQESGPGLVKPSETLSLTCTVSGGSISSSSYYWGWIRQPPGKGLEWIGSISYSGSTYYNPSLKSRVTISVDTSKNQFSLKLSSVTAADTAVYYCARGEYDRSYYYYGMDVWGQGTTVTVSS
VL: not shown
B11: KLK5-L2-Ab2 (antibody, V domains shown)
VH: B10 VH with S30P, G37A, S52N, S54Y, Y106A, Y107L
VL: not shown

Experiments:
[1] = molecular target: T1, human KLK7 (hKLK7), active form (human, UniProt P49862 30-253); test: cell-based or functional assay
T1 sequence (P49862 30-253): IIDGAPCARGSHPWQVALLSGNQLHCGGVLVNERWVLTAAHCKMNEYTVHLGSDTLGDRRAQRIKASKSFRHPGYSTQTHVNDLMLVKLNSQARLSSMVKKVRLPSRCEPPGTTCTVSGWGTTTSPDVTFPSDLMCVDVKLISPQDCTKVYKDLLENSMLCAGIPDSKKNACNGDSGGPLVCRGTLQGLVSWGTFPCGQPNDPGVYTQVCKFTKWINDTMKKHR

mouse KLK7 (mKLK7) [2] = molecular target: T2, mouse KLK7 (mKLK7) (mouse, UniProt Q91VE3 26-249); test: cell-based or functional assay
T2 sequence (Q91VE3 26-249 limits assumed): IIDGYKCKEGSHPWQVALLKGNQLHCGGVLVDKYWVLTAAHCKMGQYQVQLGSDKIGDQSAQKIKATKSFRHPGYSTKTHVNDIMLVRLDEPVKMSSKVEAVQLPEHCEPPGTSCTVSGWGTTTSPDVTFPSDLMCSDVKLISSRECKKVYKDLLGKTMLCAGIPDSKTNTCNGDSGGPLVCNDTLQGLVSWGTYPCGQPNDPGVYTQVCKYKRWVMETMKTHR

[3] = molecular target: T1, human KLK7 (hKLK7), active form; test: Biacore SPR, antibody captured on Protein A chip, single-cycle kinetics, 25 C
Protocol: (§1) All screening assays were performed at 25 C. The running buffer used was 20 mM HEPES, 300 mM NaCl, 0.01% Tween-20, pH 7.5. Antibodies (1 ug/mL) were captured on Fc2-4 of a Series S ProteinA Sensor Chip (Cytiva) flowing at 10 ul/mL for 30 s. Kinetics measurements were made in single-cycle kinetics mode with a series of 4-5 concentrations with top concentration of 25-100 nM and serial dilution 4-fold. Contact time was typically 300 s and dissociation time ranged from 1800-3600 s. Flow rate of 30 ul/mL was typically used. The sensor chip was regenerated with 10 mM glycine, pH 1.5 with a contact time of 30 s flowing at 50 ul/mL.

mouse KLK7 (mKLK7) [4] = molecular target: T2, mouse KLK7 (mKLK7); test: as above
Protocol: as §1

[5] = molecular target: T3, human KLK5 (hKLK5), active form (human, UniProt Q9Y337 67-293); test: cell-based or functional assay
mouse KLK5 (mKLK5) [6] = molecular target: mouse KLK5 (mKLK5) (mouse); test: cell-based or functional assay
[7] = molecular target: T3, human KLK5 (hKLK5), active form; test: Biacore SPR, antibody captured on Protein A chip, single-cycle kinetics, 25 C
Protocol: as §1

mouse KLK5 (mKLK5) [8] = molecular target: T4, mouse KLK5 (mKLK5) (mouse); test: as above
T4 construct: Enzymatically active in the protease assay
Protocol: as §1

Binder	hKLK7 IC50 (protease inhibition) [1] [nM]	hKLK7 IC90 (protease inhibition) [1] [nM]	mKLK7 IC50 (protease inhibition) (mouse KLK7 (mKLK7) [2]) [nM]	mKLK7 IC90 (protease inhibition) (mouse KLK7 (mKLK7) [2]) [nM]	Kd [3] [nM]	Kd (mouse KLK7 (mKLK7) [4]) [nM]	hKLK5 IC50 (protease inhibition) [5] [nM]	hKLK5 IC90 (protease inhibition) [5] [nM]	mKLK5 IC50 (protease inhibition) (mouse KLK5 (mKLK5) [6]) [nM]	mKLK5 IC90 (protease inhibition) (mouse KLK5 (mKLK5) [6]) [nM]	Kd [7] [nM]	Kd (mouse KLK5 (mKLK5) [8]) [nM]
B1	0.52	14.9	16.3	118	0.219	6	–	–	–	–	–	–
B2	–	–	–	–	–	–	3.45	83.1	29.4	103	0.783	4.44
B3	–	–	–	–	–	–	4.45	24	15	91.3	–	3.8
B4	0.37	10.5	10.9	212	0.0205	9.03	–	–	–	–	–	–
B5	–	–	–	–	–	–	1.76	9.81	8.27	83.2	–	8.8
B6	–	–	–	–	–	–	2.81	11.1	14.9	87	–	7.2
B7	–	–	–	–	–	–	12.7	112	81.3	130	2.62	16.6
B8	–	–	–	–	–	–	2.58	10.6	4.44	28.4	–	3.4
B9	0.767	3.95	1.1	5.3	0.01	0.0569	–	–	–	–	–	–
B10	–	–	–	–	–	–	11	92.9	45.9	93.2	2.53	20.5
B11	–	–	–	–	–	–	1.71	8.46	2.21	13.1	0.003	0.44
